Results as given in US20190167760A1 (SWEDISH ORPHAN BIOVITRUM AB PUBL, published 2019).

Experiments:
[1] = target: T1, Human complement protein C5 (human, UniProt P01031 19-673; P01031 678-1676); assay: cell-based or functional assay
[2] = target: T1, Human complement protein C5

T1 sequence (P01031 19-673, chain 1 of 2): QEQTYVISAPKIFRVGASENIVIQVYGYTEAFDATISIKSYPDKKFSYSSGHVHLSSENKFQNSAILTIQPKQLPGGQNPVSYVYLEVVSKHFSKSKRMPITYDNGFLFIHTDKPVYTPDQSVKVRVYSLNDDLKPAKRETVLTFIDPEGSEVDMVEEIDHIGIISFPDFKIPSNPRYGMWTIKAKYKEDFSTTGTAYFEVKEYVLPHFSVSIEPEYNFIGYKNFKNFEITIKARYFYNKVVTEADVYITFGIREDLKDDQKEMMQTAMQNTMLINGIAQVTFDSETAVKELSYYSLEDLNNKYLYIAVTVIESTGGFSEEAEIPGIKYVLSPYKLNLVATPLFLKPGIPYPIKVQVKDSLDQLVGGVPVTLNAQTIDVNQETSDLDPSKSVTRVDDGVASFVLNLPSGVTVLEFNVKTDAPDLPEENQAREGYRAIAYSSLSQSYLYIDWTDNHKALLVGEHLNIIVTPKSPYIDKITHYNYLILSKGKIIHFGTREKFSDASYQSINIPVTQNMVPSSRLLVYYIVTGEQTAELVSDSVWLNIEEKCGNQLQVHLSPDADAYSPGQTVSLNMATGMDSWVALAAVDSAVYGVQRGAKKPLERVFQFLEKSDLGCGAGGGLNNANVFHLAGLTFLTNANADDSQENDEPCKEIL
T1 sequence (P01031 678-1676, chain 2 of 2): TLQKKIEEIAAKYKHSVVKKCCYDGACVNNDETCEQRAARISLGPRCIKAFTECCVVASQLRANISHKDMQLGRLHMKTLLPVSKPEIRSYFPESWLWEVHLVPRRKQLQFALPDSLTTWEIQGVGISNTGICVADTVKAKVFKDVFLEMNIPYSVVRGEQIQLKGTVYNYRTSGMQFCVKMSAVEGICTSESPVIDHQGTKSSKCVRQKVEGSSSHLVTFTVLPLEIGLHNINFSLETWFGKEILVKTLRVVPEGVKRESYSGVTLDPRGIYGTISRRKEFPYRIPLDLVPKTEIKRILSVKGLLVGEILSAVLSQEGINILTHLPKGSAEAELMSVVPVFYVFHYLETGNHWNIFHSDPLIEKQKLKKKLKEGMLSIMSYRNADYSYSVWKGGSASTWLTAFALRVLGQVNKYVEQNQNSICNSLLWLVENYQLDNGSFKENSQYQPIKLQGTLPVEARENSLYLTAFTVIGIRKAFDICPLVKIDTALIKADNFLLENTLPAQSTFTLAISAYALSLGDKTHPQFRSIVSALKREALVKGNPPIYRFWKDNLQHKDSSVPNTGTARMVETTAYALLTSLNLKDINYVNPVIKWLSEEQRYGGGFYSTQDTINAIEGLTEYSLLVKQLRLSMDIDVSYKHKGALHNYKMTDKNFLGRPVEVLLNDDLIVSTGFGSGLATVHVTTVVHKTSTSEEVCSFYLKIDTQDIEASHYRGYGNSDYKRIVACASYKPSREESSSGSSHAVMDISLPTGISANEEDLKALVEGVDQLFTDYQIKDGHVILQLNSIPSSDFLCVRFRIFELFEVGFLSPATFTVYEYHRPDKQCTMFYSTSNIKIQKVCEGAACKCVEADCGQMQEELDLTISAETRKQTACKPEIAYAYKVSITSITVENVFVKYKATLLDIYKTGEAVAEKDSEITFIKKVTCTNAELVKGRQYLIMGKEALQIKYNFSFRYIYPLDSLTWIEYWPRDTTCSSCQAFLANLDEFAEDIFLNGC

B1: Ornithodoros moubata Complement Inhibitor with a His6 tag in the C-terminus (other)
chain: MDSESDCTGSEPVDAFQAFSEGKEAYVLVRSTDPKARDCLKGEPAGEKQDNTLPVMMTFKNGTDWASTDWTFTLDGAKVTATLGNLTQNREVVYDSQSHHCHVDKVEKEVPDYEMWMLDAGGLEVEVECCRQKLEELASGRNQMYPHLKDCGGGGSENLYFQGSHHHHHH
IC50 of inhibition of hemolysis of antibody sensitized sheep erythrocytes [1]: 0.3 to 0.5 nM | IC50 [2]: 1.5 nM
